Experimental data taken from PMC4775424 (Structure (London, England : 1993), 2016).
“Also recorded” adds a separate entry of the source.

B1: Arabidopsis thaliana ORC1b BAH-PHD cassette (domain or fragment)
chain: SETIKKTKKKKRVYYNKVEFDETEFEIGDDVYVKRREDSNSDEEEDPEIEDCQICFKSDTNIMIECDDCLGGFHLKCLKPPLKEVPEGDWICQFCEVKKSGQSQTLDLPKPPEGKKLARTMREKLLSGDLWAARIDKLWKEVDDGVYWIRARWYMIPEETVSGRQPHNLKRELYLTNDFADIEMECILRHCSVKCPKEFSKASNDGDDVFLCEYEYDVHWRSFKRLAELADG

How the values were obtained:
human ORC1 BAH domain = details: human version; ref Kuo et al., 2012; cited from earlier work
mouse ORC1 BAH domain = details: mouse version; four-residue aromatic cage; ref Kuo et al., 2012; cited from earlier work
[1] = target: H3 peptide dimethylated at K4; assay: ITC
[2] = target: unmodified H3(1-15) peptide; assay: ITC
[3] = target: H3 peptide monomethylated at K4; assay: ITC

Row | Molecule | recognition by ORC1 BAH domain (human ORC1 BAH domain) | recognition by ORC1 BAH domain (mouse ORC1 BAH domain) | fold decrease of the binding against the unmodified H3 peptide [1] [fold] | Kd [2] [nM] | fold decrease of the binding against the unmodified H3 peptide [3] [fold]
1 | H4K20me2: histone mark H4K20me2 / H4K20me2 peptide bound by metazoan ORC1 BAH domains | specifically recognize | can use a four-residue aromatic cage to recognize the methyllysine of H4K20me2; also recorded: specifically recognize |  |  | 
2 | B1 |  |  | 10 | 3000 | 4
